Results as given in patent US20260167728A1 (published 2026).

T1: cynomolgus monkey CD3 (cynomolgus monkey, UniProt Q95LI5 22-117)
T1 construct: also called Cyno CD3
T1 sequence: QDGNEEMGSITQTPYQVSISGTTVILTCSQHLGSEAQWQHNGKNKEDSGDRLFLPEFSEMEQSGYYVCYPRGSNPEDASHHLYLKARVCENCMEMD

B1: AC2909 (EGFR.61/CD3.23 paTCE) (bispecific antibody)
scFv 1: EIVLTQSPGTLSLSPGERATLSCQASQDISNYLNWYQQKPGQAPRLLIYDASNLETGIPDRFSGSGSGTDFTLTISRLEPEDFAVYYCQHFDHLPLAFGQGTKVEIKGATPPETGAETESPGETTGGSAESEPPGEGQVQLQESGPGLVKPSETLSLTCTVSGGSVSSGDYYWTWIRQPPGKGLEWIGHIYYSGNTNYNPSLKSRVTISVDTSKNQFSLKLSSVTAADTAVYYCARDRVTGAFDIWGQGTLVTVSS
scFv 2: ELVVTQEPSLTVSPGGTVTLTCRSSNGAVTSSNYANWVQQKPGQAPRGLIGGTNKRAPGTPARFSGSLLGGKAALTLSGVQPEDEAVYYCALWYPNLWVFGGGTKLTVLGATPPETGAETESPGETTGGSAESEPPGEGEVQLLESGGGIVQPGGSLKLSCAASGFTFNTYAMNWVRQAPGKGLEWVARIRSKYNNYATYYADSVKDRFTISRDDSKNTVYLQMNNLKTEDTAVYYCVRHENFGNSYVSWFAHWGQGTLVTVSS
notes: EGFR library format (remarks)
B2: AC1955 (EGFR.2/CD3.9 paTCE) (bispecific antibody)
VL: DIQMTQSPSSLSASVGDRVTITCQASQDISNYLNWYQQKPGKAPKLLIYDASNLETGVPSRFSGSGSGTDFTFTISSLQPEDIATYFCQHFDHLPLAFGGGTKVEIK
VH: QVQLQESGPGLVKPSETLSLTCTVSGGSVSSGDYYWTWIRQSPGKGLEWIGHIYYSGNTNYNPSLKSRLTISIDTSKTQFSLKLSSVTAADTAIYYCVRDRVTGAFDIWGQGTMVTVSS
scFv: ELVVTQEPSLTVSPGGTVTLTCRSSTGAVTTSNYANWVQQKPGQAPRGLIGGTNKRAPGTPARFSGSLLGGKAALTLSGVQPEDEAEYYCALWYSNLWVFGGGTKLTVLGATPPETGAETESPGETTGGSAESEPPGEGEVQLLESGGGLVQPGGSLKLSCAASGFTFNTYAMNWVRQAPGKGLEWVARIRSKYNNYATYYADSVKDRFTISRDDSKNTAYLQMNNLKTEDTAVYYCVRHGNFGNSYVSWFAYWGQGTLVTVSS
notes: One polypeptide; also called EGFR-XPAT gen1; pJB0169
B3: AMX-525 (uTCE) (bispecific antibody)
chain: GTSESATPESDIQMTQSPSSLSASVGDRVTITCQASQDISNYLNWYQQKPGKAPKLLIYDASNLETGVPSRFSGSGSGTDFTFTISSLQPEDIATYYCQHFDHLPLAFGQGTKVEIKSESATPESGPGTSPGATPESGPGTSESATPQVQLQESGPGLVKPSETLSLTCTVSGGSVSSGDYYWTWIRQPPGKGLEWIGHIYYSGNTNYNPSLKSRVTISVDTSKNQFSLKLSSVTAADTAVYYCARDRVTGAFDIWGQGTLVTVSSGGGGSELVVTQEPSLTVSPGGTVTLTCRSSNGAVTSSNYANWVQQKPGQAPRGLIGGTNKRAPGTPARFSGSLLEGKAALTLSGVQPEDEAVYYCALWYPNLWVFGGGTKLTVLSESATPESGPGTSPGATPESGPGTSESATPEVQLVESGGGIVQPGGSLRLSCAASGFTFSTYAMNWVRQAPGKGLEWVGRIRTKRNDYATYYADSVKGRFTISRDDSKNTLYLQMNSLKTEDTAVYYCVRHENFGNSYVSWFAHWGQGTLVTVSSGTATPESGPG
notes: Fully unmasked metabolite; also called unmasked AMX-525; not shown: remnant of cleaved RSR-3213
B4: AMX-525 (1x-C) (bispecific antibody)
chain: GTSESATPESDIQMTQSPSSLSASVGDRVTITCQASQDISNYLNWYQQKPGKAPKLLIYDASNLETGVPSRFSGSGSGTDFTFTISSLQPEDIATYYCQHFDHLPLAFGQGTKVEIKSESATPESGPGTSPGATPESGPGTSESATPQVQLQESGPGLVKPSETLSLTCTVSGGSVSSGDYYWTWIRQPPGKGLEWIGHIYYSGNTNYNPSLKSRVTISVDTSKNQFSLKLSSVTAADTAVYYCARDRVTGAFDIWGQGTLVTVSSGGGGSELVVTQEPSLTVSPGGTVTLTCRSSNGAVTSSNYANWVQQKPGQAPRGLIGGTNKRAPGTPARFSGSLLEGKAALTLSGVQPEDEAVYYCALWYPNLWVFGGGTKLTVLSESATPESGPGTSPGATPESGPGTSESATPEVQLVESGGGIVQPGGSLRLSCAASGFTFSTYAMNWVRQAPGKGLEWVGRIRTKRNDYATYYADSVKGRFTISRDDSKNTLYLQMNSLKTEDTAVYYCVRHENFGNSYVSWFAHWGQGTLVTVSSGTATPESGPGEAGRSASHTPAGLTGPATPESGPGTSESATPESGPGSPAGSPTSTEEGTSESATPESGPGSEPATSGSETPGTSESATPESGPGTSTEPSEGSAPGTSTEPSEGSAPGTSTEPSEGSAPGTSTEPSEGSAPGTSTEPSEGSAPGTSTEPSEGSAPGSPAGSPTSTEEGTSTEPSEGSAPGTSESATPESGPGSEPATSGSETPGTSESATPESGPGSEPATSGSETPGTSESATPESGPGTSTEPSEGSAPGTSESATPESGPGSPAGSPTSTEEGSPAGSPTSTEEGSPAGSPTSTEEGTSESATPESGPGTSTEPSEGSAPGTSESATPESGPGSEPATSGSETPGTSESATPESGPGSEPATSGSETPGTSESATPESGPGTSTEPSEGSAPGSPAGSPTSTEEGTSESATPESGPGSEPATSGSETPGTSESATPESGPGSPAGSPTSTEEGSPAGSPTSTEEGTSTEPSEGSAPGTSESATPESGPGTSESATPESGPGTSPSATPESGPGSEPATSGSETPGSEPATSGSETPGSPAGSPTSTEEGTSTEPSEGSAPGTSTEPSEGSAPGSEPATSGSETPGTSESAGEPEA
B5: AMX-525 (bispecific antibody)
chain: ASSATPESGPGTSTEPSEGSAPGTSESATPESGPGSGPGTSESATPGTSESATPESGPGSEPATSGSETPGTSESATPESGPGTSTEPSEGSAPGSPAGSPTSTEEGTSESATPESGPGSEPATSGSETPGTSESATPESGPGSPAGSPTSTEEGSPAGSPTSTEEGTSTEPSEGSAPGTSESATPESGPGTSESATPESGPGTSESATPESGPGSEPATSGSETPGSEPATSGSETPGSPAGSPTSTEEGTSTEPSEGSAPGTSTEPSEGSAPGSEPATSGSETPGTSESATPEAGRSASHTPAGLTGPGTSESATPESDIQMTQSPSSLSASVGDRVTITCQASQDISNYLNWYQQKPGKAPKLLIYDASNLETGVPSRFSGSGSGTDFTFTISSLQPEDIATYYCQHFDHLPLAFGQGTKVEIKSESATPESGPGTSPGATPESGPGTSESATPQVQLQESGPGLVKPSETLSLTCTVSGGSVSSGDYYWTWIRQPPGKGLEWIGHIYYSGNTNYNPSLKSRVTISVDTSKNQFSLKLSSVTAADTAVYYCARDRVTGAFDIWGQGTLVTVSSGGGGSELVVTQEPSLTVSPGGTVTLTCRSSNGAVTSSNYANWVQQKPGQAPRGLIGGTNKRAPGTPARFSGSLLEGKAALTLSGVQPEDEAVYYCALWYPNLWVFGGGTKLTVLSESATPESGPGTSPGATPESGPGTSESATPEVQLVESGGGIVQPGGSLRLSCAASGFTFSTYAMNWVRQAPGKGLEWVGRIRTKRNDYATYYADSVKGRFTISRDDSKNTLYLQMNSLKTEDTAVYYCVRHENFGNSYVSWFAHWGQGTLVTVSSGTATPESGPGEAGRSASHTPAGLTGPATPESGPGTSESATPESGPGSPAGSPTSTEEGTSESATPESGPGSEPATSGSETPGTSESATPESGPGTSTEPSEGSAPGTSTEPSEGSAPGTSTEPSEGSAPGTSTEPSEGSAPGTSTEPSEGSAPGTSTEPSEGSAPGSPAGSPTSTEEGTSTEPSEGSAPGTSESATPESGPGSEPATSGSETPGTSESATPESGPGSEPATSGSETPGTSESATPESGPGTSTEPSEGSAPGTSESATPESGPGSPAGSPTSTEEGSPAGSPTSTEEGSPAGSPTSTEEGTSESATPESGPGTSTEPSEGSAPGTSESATPESGPGSEPATSGSETPGTSESATPESGPGSEPATSGSETPGTSESATPESGPGTSTEPSEGSAPGSPAGSPTSTEEGTSESATPESGPGSEPATSGSETPGTSESATPESGPGSPAGSPTSTEEGSPAGSPTSTEEGTSTEPSEGSAPGTSESATPESGPGTSESATPESGPGTSPSATPESGPGSEPATSGSETPGSEPATSGSETPGSPAGSPTSTEEGTSTEPSEGSAPGTSTEPSEGSAPGSEPATSGSETPGTSESAGEPEA
notes: Fully masked paTCE; also called AC4230; EGFR.37/CD3.318 paTCE
B6: AMX-525 (1x-N) (bispecific antibody)
chain: ASSATPESGPGTSTEPSEGSAPGTSESATPESGPGSGPGTSESATPGTSESATPESGPGSEPATSGSETPGTSESATPESGPGTSTEPSEGSAPGSPAGSPTSTEEGTSESATPESGPGSEPATSGSETPGTSESATPESGPGSPAGSPTSTEEGSPAGSPTSTEEGTSTEPSEGSAPGTSESATPESGPGTSESATPESGPGTSESATPESGPGSEPATSGSETPGSEPATSGSETPGSPAGSPTSTEEGTSTEPSEGSAPGTSTEPSEGSAPGSEPATSGSETPGTSESATPEAGRSASHTPAGLTGPGTSESATPESDIQMTQSPSSLSASVGDRVTITCQASQDISNYLNWYQQKPGKAPKLLIYDASNLETGVPSRFSGSGSGTDFTFTISSLQPEDIATYYCQHFDHLPLAFGQGTKVEIKSESATPESGPGTSPGATPESGPGTSESATPQVQLQESGPGLVKPSETLSLTCTVSGGSVSSGDYYWTWIRQPPGKGLEWIGHIYYSGNTNYNPSLKSRVTISVDTSKNQFSLKLSSVTAADTAVYYCARDRVTGAFDIWGQGTLVTVSSGGGGSELVVTQEPSLTVSPGGTVTLTCRSSNGAVTSSNYANWVQQKPGQAPRGLIGGTNKRAPGTPARFSGSLLEGKAALTLSGVQPEDEAVYYCALWYPNLWVFGGGTKLTVLSESATPESGPGTSPGATPESGPGTSESATPEVQLVESGGGIVQPGGSLRLSCAASGFTFSTYAMNWVRQAPGKGLEWVGRIRTKRNDYATYYADSVKGRFTISRDDSKNTLYLQMNSLKTEDTAVYYCVRHENFGNSYVSWFAHWGQGTLVTVSSGTATPESGPG
notes: Singly masked metabolite; that the N-terminal mask is the one kept is read from the label only; not shown: remnant of cleaved RSR-3213

Columns and labels:
[1] = biological target: T2, human CD3 (human, UniProt P07766 23-126); assay: method not stated
[2] = biological target: T3, human EGFR (human, UniProt P00533 25-645, limits assumed); assay: BLI, room temperature
T3 construct: on HT-29 cells in the cytotoxicity assay; also called epidermal growth factor receptor
Procedure: Each construct was expressed in small-scale and purified. Thermal stability was determined by Differential Scanning Fluorimetry. Melting temperature (Tₘ) determined by Differential Scanning Fluorimetry experiments described herein were performed either in duplicate or triplicate using GloMelt™ dye and QuantStudio5™. GloMelt™ dye undergoes fluorescence enhancement upon binding to hydrophobic regions of denatured proteins. Therefore, the dye can be used to detect protein unfolding or measure thermal stability. GloMelt™ dye is optimized for detection in the SYBR® Green channel of qPCR instruments. The Differential Scanning Fluorimetry experiments were performed in 96-well plates with 10 μg protein/reaction (equal to 0.5 mg/mL final protein concentration), reaction buffer, and GloMelt™ 10× dye according to manufacturer's instructions. Fluorescence of 96-well plates was read and melt curve plots were generated in the QuantStudio5™ qPCR system. Binding affinity was analyzed with bio-layer interferometry at room temperature with human EGFR as the antigen.

[3] = biological target: T1, cynomolgus monkey CD3; assay: SPR Biacore 37 C
[4] = biological target: T2, human CD3; assay: SPR Biacore 37 C
[5] = biological target: T4, cynomolgus monkey EGFR (cynomolgus monkey, UniProt A0A2K5WK39 25-645); assay: SPR Biacore 37 C
T4 construct: also called Cyno EGFR

[6] = biological target: T3, human EGFR; assay: SPR Biacore 37 C

T2 sequence (P07766 23-126 limits assumed): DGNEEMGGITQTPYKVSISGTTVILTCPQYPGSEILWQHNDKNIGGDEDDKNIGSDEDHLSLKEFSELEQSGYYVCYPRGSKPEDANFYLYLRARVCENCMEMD

Row | Binder | Kd [1] | Kd [2] | Kd [3] | koff [3] | kon [3] | Kd [4] | koff [4] | kon [4] | Kd [5] | koff [5] | kon [5] | Kd [6] | koff [6] | kon [6]
1 | B1 | ~203 nM | 2.4 nM | – | – | – | – | – | – | – | – | – | – | – | –
2 | B2 | – | 0.72 nM | – | – | – | – | – | – | – | – | – | – | – | –
3 | B3 | – | – | 28 nM | 0.14 s⁻¹ | 5e+06 M⁻¹ s⁻¹ | 29.2 nM | 0.128 s⁻¹ | 4.4e+06 M⁻¹ s⁻¹ | 0.042 nM | 0.00017 s⁻¹ | 4.1e+06 M⁻¹ s⁻¹ | 0.034 nM | 0.00023 s⁻¹ | 6.45e+06 M⁻¹ s⁻¹
4 | B4 | – | – | – | – | – | – | – | – | 0.238 nM | 0.00051 s⁻¹ | 2.12e+06 M⁻¹ s⁻¹ | 0.184 nM | 0.00036 s⁻¹ | 2e+06 M⁻¹ s⁻¹
5 | B5 | – | – | 167 nM | 0.18 s⁻¹ | 1.1e+06 M⁻¹ s⁻¹ | 57 nM | 0.18 s⁻¹ | 3.1e+06 M⁻¹ s⁻¹ | 1.05 nM | 0.001 s⁻¹ | 910000 M⁻¹ s⁻¹ | 0.736 nM | 0.00077 s⁻¹ | 1.04e+06 M⁻¹ s⁻¹
6 | B6 | – | – | 47 nM | – | – | 36 nM | – | – | 0.25 nM | – | – | – | – | –
